Reference: IntAct's records for PubMed 31515488

B1: Methylmalonyl-CoA epimerase, mitochondrial (Homo sapiens), Q96PE7 (parent)
chain: MARVLKAAAANAVGLFSRLQAPIPTVRASSTSQPLDQVTGSVWNLGRLNHVAIAVPDLEKAAAFYKNILGAQVSEAVPLPEHGVSVVFVNLGNTKMELLHPLGRDSPIAGFLQKNKAGGMHHICIEVDNINAAVMDLKKKKIRSLSEEVKIGAHGKPVIFLHPKDCGGVLVELEQA
partner: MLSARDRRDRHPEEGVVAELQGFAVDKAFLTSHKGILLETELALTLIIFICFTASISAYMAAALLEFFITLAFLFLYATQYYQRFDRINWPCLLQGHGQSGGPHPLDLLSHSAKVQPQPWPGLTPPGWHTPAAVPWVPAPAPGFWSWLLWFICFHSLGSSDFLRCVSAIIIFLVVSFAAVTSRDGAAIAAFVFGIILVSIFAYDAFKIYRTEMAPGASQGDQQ
B2: Pleckstrin homology domain-containing family N member 1 (Homo sapiens), Q494U1 (parent)
chain: MGNSHCVPQAPRRLRASFSRKPSLKGNREDSARMSAGLPGPEAARSGDAAANKLFHYIPGTDILDLENQRENLEQPFLSVFKKGRRRVPVRNLGKVVHYAKVQLRFQHSQDVSDCYLELFPAHLYFQAHGSEGLTFQGLLPLTELSVCPLEGSREHAFQITGPLPAPLLVLCPSRAELDRWLYHLEKQTALLGGPRRCHSAPPQRRLTRLRTASGHEPGGSAVCASRVKLQHLPAQEQWDRLLVLYPTSLAIFSEELDGLCFKGELPLRAVHINLEEKEKQIRSFLIEGPLINTIRVVCASYEDYGHWLLCLRAVTHREGAPPLPGAESFPGSQVMGSGRGSLSSGGQTSWDSGCLAPPSTRTSHSLPESSVPSTVGCSSQHTPDQANSDRASIGRRRTELRRSGSSRSPGSKARAEGRGPVTPLHLDLTQLHRLSLESSPDAPDHTSETSHSPLYADPYTPPATSHRRVTDVRGLEEFLSAMQSARGPTPSSPLPSVPVSVPASDPRSCSSGPAGPYLLSKKGALQSRAAQRHRGSAKDGGPQPPDAPQLVSSAREGSPEPWLPLTDGRSPRRSRDPGYDHLWDETLSSSHQKCPQLGGPEASGGLVQWI
B3: Iron-sulfur cluster co-chaperone protein HscB (Homo sapiens), Q8IWL3 (parent)
chain: MWRGRAGALLRVWGFWPTGVPRRRPLSCDAASQAGSNYPRCWNCGGPWGPGREDRFFCPQCRALQAPDPTRDYFSLMDCNRSFRVDTAKLQHRYQQLQRLVHPDFFSQRSQTEKDFSEKHSTLVNDAYKTLLAPLSRGLYLLKLHGIEIPERTDYEMDRQFLIEIMEINEKLAEAESEAAMKEIESIVKAKQKEFTDNVSSAFEQDDFEEAKEILTKMRYFSNIEEKIKLKKIPL
B4: Caspase recruitment domain-containing protein 9 (Homo sapiens), Q9H257 (parent)
chain: MSDYENDDECWSVLEGFRVTLTSVIDPSRITPYLRQCKVLNPDDEEQVLSDPNLVIRKRKVGVLLDILQRTGHKGYVAFLESLELYYPQLYKKVTGKEPARVFSMIIDASGESGLTQLLMTEVMKLQKKVQDLTALLSSKDDFIKELRVKDSLLRKHQERVQRLKEECEAGSRELKRCKEENYDLAMRLAHQSEEKGAALMRNRDLQLEIDQLKHSLMKAEDDCKVERKHTLKLRHAMEQRPSQELLWELQQEKALLQARVQELEASVQEGKLDRSSPYIQVLEEDWRQALRDHQEQANTIFSLRKDLRQGEARRLRCMEEKEMFELQCLALRKDSKMYKDRIEAILLQMEEVAIERDQAIATREELHAQHARGLQEKDALRKQVRELGEKADELQLQVFQCEAQLLAVEGRLRRQQLETLVLSSDLEDGSPRRSQELSLPQDLEDTQLSDKGCLAGGGSPKQPFAALHQEQVLRNPHDAGLSSGEPPEKERRRLKESFENYRRKRALRKMQKGWRQGEEDRENTTGSDNTDTEGS
partner: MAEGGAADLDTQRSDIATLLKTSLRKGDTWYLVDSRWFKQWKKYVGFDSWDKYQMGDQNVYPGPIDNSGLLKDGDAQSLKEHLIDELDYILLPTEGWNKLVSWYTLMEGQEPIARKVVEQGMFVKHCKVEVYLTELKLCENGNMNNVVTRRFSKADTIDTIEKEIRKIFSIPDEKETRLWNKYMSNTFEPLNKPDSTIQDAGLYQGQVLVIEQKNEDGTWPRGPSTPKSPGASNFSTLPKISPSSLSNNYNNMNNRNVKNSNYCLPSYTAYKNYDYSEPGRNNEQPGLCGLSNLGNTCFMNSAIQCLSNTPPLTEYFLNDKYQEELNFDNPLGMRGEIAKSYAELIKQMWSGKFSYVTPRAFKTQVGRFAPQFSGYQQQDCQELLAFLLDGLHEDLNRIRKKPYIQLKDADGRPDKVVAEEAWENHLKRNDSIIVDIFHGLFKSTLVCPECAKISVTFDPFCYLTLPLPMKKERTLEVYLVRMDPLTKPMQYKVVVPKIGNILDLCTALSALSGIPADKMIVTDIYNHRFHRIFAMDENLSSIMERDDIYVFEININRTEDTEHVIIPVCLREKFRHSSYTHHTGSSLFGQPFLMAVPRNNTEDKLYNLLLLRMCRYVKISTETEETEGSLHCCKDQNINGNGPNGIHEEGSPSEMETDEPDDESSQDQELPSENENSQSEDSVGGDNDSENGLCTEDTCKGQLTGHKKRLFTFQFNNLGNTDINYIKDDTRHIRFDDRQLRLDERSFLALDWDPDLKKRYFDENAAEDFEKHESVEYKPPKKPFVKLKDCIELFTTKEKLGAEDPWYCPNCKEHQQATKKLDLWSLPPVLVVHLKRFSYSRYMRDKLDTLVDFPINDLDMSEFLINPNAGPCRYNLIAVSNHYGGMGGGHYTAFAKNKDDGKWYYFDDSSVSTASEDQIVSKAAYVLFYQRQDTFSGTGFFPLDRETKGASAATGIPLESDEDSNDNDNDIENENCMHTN
B5: NADPH-dependent diflavin oxidoreductase 1 (Homo sapiens), Q9UHB4 (parent)
chain: MPSPQLLVLFGSQTGTAQDVSERLGREARRRRLGCRVQALDSYPVVNLINEPLVIFVCATTGQGDPPDNMKNFWRFIFRKNLPSTALCQMDFAVLGLGDSSYAKFNFVAKKLHRRLLQLGGSALLPVCLGDDQHELGPDAAVDPWLRDLWDRVLGLYPPPPGLTEIPPGVPLPSKFTLLFLQEAPSTGSEGQRVAHPGSQEPPSESKPFLAPMISNQRVTGPSHFQDVRLIEFDILGSGISFAAGDVVLIQPSNSAAHVQRFCQVLGLDPDQLFMLQPREPDVSSPTRLPQPCSMRHLVSHYLDIASVPRRSFFELLACLSLHELEREKLLEFSSAQGQEELFEYCNRPRRTILEVLCDFPHTAAAIPPDYLLDLIPVIRPRAFSIASSLLTHPSRLQILVAVVQFQTRLKEPRRGLCSSWLASLDPGQGPVRVPLWVRPGSLAFPETPDTPVIMVGPGTGVAPFRAAIQERVAQGQTGNFLFFGCRWRDQDFYWEAEWQELEKRDCLTLIPAFSREQEQKVYVQHRLRELGSLVWELLDRQGAYFYLAGNAKSMPADVSEALMSIFQEEGGLCSPDAAAYLARLQQTRRFQTETWA
B6: Zinc finger protein 414 (Homo sapiens), Q96IQ9 (parent)
chain: MEEKPSGPIPDMLATAEPSSSETDKEVLSPAVPAAAPSSSMSEEPGPEQAATPPVWERGGAGGMQQGSSPAPDSCQPGPGPSPGLTSIVSGTSEDLRPPRRRPPPGKQIPCSSPGCCLSFPSVRDLAQHLRTHCPPTQSLEGKLFRCSALSCTETFPSMQELVAHSKLHYKPNRYFKCENCLLRFRTHRSLFKHLHVCAEHAQSPAPPPPPALDREPPAPERPPEVDPASAPGLPFPLLEPFTTPAPAPTGPFLPYLNPAPFGLSPPRLRPFLAAAPGPPASSAAVWKKSQGAGSSPRRPQGGSDAPSGACR
partner: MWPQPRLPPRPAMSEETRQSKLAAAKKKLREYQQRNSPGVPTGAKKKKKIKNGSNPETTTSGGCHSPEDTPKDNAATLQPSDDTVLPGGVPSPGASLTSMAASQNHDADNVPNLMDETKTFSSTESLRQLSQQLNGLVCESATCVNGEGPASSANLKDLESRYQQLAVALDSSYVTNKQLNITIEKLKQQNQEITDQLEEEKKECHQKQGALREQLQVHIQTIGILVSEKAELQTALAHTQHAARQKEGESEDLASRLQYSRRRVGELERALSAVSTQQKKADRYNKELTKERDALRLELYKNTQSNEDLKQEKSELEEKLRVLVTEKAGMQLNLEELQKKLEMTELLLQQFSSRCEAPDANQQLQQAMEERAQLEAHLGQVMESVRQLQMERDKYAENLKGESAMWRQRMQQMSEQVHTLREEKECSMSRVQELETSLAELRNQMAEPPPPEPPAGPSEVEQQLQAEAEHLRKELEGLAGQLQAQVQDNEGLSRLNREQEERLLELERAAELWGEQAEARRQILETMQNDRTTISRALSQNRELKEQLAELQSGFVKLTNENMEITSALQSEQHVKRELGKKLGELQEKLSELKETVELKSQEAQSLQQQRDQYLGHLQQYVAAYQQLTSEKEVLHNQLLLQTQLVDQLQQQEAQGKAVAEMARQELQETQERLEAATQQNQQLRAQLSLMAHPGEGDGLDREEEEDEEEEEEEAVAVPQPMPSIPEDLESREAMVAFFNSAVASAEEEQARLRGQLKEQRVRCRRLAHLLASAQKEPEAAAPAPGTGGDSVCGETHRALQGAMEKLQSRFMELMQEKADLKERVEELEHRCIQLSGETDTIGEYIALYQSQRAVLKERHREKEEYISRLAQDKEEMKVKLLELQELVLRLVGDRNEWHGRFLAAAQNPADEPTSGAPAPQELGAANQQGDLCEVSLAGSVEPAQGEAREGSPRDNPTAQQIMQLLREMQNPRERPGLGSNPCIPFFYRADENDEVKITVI
B7: SH2 domain-containing protein 4A (Homo sapiens), Q9H788 (parent)
chain: MLKQILSEMYIDPDLLAELSEEQKQILFFKMREEQIRRWKEREAAMERKESLPVKPRPKKENGKSVHWKLGADKEVWVWVMGEHHLDKPYDVLCNEIIAERARLKAEQEAEEPRKTHSEEFTNSLKTKSQYHDLQAPDNQQTKDIWKKVAEKEELEQGSRPAPTLEEEKIRSLSSSSRNIQQMLADSINRMKAYAFHQKKESMKKKQDEEINQIEEERTKQICKSWKEDSEWQASLRKSKAADEKRRSLAKQAREDYKRLSLGAQKGRGGERLQSPLRVPQKPERPPLPPKPQFLNSGAYPQKPLRNQGVVRTLSSSAQEDIIRWFKEEQLPLRAGYQKTSDTIAPWFHGILTLKKANELLLSTGMPGSFLIRVSERIKGYALSYLSEDGCKHFLIDASADAYSFLGVDQLQHATLADLVEYHKEEPITSLGKELLLYPCGQQDQLPDYLELFE
B8: BICD family-like cargo adapter 2 (Homo sapiens), A1A5D9 (parent)
chain: MSSPDGPSFPSGPLSGGASPSGDEGFFPFVLERRDSFLGGGPGPEEPEDLALQLQQKEKDLLLAAELGKMLLERNEELRRQLETLSAQHLEREERLQQENHELRRGLAARGAEWEARAVELEGDVEALRAQLGEQRSEQQDSGRERARALSELSEQNLRLSQQLAQASQTEQELQRELDALRGQCQAQALAGAELRTRLESLQGENQMLQSRRQDLEAQIRGLREEVEKGEGRLQTTHEELLLLRRERREHSLELERARSEAGEALSALRRLQRRVSELEEESRLQDADVSAASLQSELAHSLDDGDQGQGADAPGDTPTTRSPKTRKASSPQPSPPEEILEPPKKRTSLSPAEILEEKEVEVAKLQDEISLQQAELQSLREELQRQKELRAQEDPGEALHSALSDRDEAVNKALELSLQLNRVSLERDSLSRELLRAIRQKVALTQELEAWQDDMQVVIGQQLRSQRQKELSASASSSTPRRAAPRFSLRLGPGPAGGFLSNLFRRT

Variants of: B1
Conditions: with cklf5_human CMTM5, Q96DZ9

| effect of a mutation on the interaction | Variant |
| --- | --- |
| with no effect | A76V |
| with no effect | R143H |

Variants of: B2
Conditions: with itf2_human TCF4, P15884
Target sequence in this assay (P15884 whole entry): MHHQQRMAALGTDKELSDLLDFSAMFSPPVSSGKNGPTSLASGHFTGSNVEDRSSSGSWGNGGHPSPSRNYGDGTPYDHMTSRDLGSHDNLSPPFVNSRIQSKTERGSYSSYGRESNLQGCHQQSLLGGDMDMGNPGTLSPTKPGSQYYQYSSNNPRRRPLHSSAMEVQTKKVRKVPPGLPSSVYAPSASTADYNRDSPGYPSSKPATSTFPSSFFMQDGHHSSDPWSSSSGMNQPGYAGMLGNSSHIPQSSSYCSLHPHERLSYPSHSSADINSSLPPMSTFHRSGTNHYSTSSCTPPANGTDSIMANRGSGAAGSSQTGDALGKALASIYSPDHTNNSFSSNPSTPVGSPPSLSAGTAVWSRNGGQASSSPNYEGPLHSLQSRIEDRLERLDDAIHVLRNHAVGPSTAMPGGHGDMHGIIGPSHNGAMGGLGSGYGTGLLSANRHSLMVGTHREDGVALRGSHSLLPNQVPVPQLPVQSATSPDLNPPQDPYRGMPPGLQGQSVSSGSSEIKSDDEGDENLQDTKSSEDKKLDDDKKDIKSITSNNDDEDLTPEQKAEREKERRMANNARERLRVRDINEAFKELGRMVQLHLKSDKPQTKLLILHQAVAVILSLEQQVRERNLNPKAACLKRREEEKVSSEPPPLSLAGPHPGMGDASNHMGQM

| effect of a mutation on the interaction | Variant |
| --- | --- |
| with no effect | R487P |

Variants of: B2
Conditions: with traf1_human TRAF1, Q13077
traf1_human TRAF1, Q13077, sequence (Q13077 whole entry): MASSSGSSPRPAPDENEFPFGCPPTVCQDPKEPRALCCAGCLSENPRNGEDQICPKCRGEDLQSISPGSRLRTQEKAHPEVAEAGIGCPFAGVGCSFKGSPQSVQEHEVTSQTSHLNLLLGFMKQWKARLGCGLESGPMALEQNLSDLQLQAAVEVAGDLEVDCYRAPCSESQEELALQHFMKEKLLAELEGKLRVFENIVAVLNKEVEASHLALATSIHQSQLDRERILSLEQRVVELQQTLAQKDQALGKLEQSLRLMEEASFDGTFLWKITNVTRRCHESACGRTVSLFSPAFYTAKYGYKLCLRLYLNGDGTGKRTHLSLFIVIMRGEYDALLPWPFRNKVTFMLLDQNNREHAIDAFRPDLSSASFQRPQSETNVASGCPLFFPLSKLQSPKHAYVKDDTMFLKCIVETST

| effect of a mutation on the interaction | Variant |
| --- | --- |
| with no effect | R487P |

Variants of: B2
Conditions: with taxb1_human TAX1BP1, Q86VP1
taxb1_human TAX1BP1, Q86VP1, sequence (Q86VP1 whole entry): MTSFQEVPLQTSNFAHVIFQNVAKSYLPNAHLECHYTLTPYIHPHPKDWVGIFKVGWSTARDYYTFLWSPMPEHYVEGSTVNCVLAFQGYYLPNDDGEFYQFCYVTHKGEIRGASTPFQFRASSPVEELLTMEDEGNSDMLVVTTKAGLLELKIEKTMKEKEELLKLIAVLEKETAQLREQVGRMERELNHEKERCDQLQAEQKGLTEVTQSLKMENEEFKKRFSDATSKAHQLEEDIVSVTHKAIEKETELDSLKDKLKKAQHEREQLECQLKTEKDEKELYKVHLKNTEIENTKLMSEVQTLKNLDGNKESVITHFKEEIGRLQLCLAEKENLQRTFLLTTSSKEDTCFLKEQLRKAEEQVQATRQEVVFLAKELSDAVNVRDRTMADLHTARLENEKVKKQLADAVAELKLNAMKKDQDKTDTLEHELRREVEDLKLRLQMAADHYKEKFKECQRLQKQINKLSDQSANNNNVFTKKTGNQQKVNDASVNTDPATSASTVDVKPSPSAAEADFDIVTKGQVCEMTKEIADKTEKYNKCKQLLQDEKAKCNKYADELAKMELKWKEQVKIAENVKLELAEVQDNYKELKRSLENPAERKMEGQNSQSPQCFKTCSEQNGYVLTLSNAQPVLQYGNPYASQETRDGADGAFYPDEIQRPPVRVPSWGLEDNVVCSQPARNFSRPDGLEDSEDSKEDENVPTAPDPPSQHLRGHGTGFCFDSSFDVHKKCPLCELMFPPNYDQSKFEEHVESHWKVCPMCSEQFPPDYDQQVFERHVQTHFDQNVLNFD

| effect of a mutation on the interaction | Variant |
| --- | --- |
| with no effect | R487P |

Variants of: B3
Conditions: with atrap_human AGTRAP

| effect of a mutation on the interaction | Variant |
| --- | --- |
| disrupting interaction strength | I163M |

Variants of: B4
Conditions: with ubp15_human USP15, Q9Y4E8

| effect of a mutation on the interaction | Variant |
| --- | --- |
| disrupting interaction strength | V385L |

Variants of: B5
Conditions: with mtus2_human MTUS2, Q5JR59

| effect of a mutation on the interaction | Variant |
| --- | --- |
| with no effect | P281L |

Variants of: B5
Conditions: with ccd33_human CCDC33, Q8N5R6
ccd33_human CCDC33, Q8N5R6, sequence (Q8N5R6 whole entry): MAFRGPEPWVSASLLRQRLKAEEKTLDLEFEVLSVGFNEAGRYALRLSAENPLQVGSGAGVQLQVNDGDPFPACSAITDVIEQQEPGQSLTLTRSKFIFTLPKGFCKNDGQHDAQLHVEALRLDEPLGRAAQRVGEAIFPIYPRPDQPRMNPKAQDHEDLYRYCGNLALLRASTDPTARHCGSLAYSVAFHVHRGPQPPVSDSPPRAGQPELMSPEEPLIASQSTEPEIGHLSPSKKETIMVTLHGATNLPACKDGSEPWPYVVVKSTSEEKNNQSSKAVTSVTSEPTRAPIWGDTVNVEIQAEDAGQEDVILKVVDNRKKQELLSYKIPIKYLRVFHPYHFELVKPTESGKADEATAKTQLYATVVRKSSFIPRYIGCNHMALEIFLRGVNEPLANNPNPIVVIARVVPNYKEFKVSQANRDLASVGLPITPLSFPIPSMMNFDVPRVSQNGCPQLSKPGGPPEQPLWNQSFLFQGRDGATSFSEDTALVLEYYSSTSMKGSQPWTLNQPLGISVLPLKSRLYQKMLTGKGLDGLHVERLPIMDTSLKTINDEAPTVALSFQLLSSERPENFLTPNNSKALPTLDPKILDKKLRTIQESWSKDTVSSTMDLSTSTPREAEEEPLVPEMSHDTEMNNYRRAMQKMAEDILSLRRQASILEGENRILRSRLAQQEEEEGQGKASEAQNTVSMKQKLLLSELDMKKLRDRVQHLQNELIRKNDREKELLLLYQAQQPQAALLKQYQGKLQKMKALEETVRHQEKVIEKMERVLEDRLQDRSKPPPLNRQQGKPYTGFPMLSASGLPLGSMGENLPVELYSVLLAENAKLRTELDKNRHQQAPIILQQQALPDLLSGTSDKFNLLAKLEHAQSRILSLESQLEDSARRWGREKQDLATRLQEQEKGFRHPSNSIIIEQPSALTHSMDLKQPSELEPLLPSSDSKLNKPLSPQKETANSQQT

| effect of a mutation on the interaction | Variant |
| --- | --- |
| with no effect | V153I |

Variants of: B5
Conditions: with cpin1_human CIAPIN1, Q6FI81
cpin1_human CIAPIN1, Q6FI81, sequence (Q6FI81 whole entry): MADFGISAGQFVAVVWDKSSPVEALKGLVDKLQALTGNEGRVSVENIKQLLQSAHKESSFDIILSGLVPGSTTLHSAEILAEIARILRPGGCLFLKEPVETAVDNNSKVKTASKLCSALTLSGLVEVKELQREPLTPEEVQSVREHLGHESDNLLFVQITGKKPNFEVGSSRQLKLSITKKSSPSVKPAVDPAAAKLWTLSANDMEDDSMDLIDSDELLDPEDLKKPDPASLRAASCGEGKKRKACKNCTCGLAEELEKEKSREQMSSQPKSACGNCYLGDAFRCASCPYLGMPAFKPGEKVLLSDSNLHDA

| effect of a mutation on the interaction | Variant |
| --- | --- |
| with no effect | V153I |

Variants of: B5
Conditions: with itf2_human TCF4, P15884
Target sequence in this assay (P15884 whole entry): as the sequence (P15884 whole entry) above

| effect of a mutation on the interaction | Variant |
| --- | --- |
| with no effect | V153I |

Variants of: B6
Conditions: with goga2_human GOLGA2, Q08379

| effect of a mutation on the interaction | Variant |
| --- | --- |
| with no effect | P77S |
| with no effect | S166G |

Variants of: B7
Conditions: with tfp11_human TFIP11, Q9UBB9
tfp11_human TFIP11, Q9UBB9, sequence (Q9UBB9 whole entry): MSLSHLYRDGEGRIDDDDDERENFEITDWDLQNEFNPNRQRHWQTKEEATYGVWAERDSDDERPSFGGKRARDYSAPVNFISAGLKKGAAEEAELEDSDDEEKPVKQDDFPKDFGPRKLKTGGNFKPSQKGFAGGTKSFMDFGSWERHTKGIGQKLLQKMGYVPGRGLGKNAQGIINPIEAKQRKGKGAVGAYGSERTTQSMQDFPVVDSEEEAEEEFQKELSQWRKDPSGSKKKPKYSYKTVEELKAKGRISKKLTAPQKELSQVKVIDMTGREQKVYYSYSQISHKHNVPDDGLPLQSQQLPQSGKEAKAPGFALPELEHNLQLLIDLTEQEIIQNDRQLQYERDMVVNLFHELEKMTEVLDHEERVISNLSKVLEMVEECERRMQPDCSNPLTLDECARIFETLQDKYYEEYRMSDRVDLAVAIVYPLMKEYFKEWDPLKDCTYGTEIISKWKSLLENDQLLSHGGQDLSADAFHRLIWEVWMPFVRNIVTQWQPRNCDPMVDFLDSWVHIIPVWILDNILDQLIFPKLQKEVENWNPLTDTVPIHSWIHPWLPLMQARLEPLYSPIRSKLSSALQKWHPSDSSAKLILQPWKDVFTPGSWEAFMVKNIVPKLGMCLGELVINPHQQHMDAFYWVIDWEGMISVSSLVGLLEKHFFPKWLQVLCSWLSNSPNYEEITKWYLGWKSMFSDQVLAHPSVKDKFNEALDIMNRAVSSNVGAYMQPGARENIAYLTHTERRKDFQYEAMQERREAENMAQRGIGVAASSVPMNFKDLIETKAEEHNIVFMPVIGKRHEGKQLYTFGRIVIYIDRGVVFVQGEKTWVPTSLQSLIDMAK

| effect of a mutation on the interaction | Variant |
| --- | --- |
| with no effect | K303R |
| with no effect | E216G |
| with no effect | G263A |

Variants of: B7
Conditions: with tacc1_human TACC1, O75410
tacc1_human TACC1, O75410, sequence (O75410 whole entry): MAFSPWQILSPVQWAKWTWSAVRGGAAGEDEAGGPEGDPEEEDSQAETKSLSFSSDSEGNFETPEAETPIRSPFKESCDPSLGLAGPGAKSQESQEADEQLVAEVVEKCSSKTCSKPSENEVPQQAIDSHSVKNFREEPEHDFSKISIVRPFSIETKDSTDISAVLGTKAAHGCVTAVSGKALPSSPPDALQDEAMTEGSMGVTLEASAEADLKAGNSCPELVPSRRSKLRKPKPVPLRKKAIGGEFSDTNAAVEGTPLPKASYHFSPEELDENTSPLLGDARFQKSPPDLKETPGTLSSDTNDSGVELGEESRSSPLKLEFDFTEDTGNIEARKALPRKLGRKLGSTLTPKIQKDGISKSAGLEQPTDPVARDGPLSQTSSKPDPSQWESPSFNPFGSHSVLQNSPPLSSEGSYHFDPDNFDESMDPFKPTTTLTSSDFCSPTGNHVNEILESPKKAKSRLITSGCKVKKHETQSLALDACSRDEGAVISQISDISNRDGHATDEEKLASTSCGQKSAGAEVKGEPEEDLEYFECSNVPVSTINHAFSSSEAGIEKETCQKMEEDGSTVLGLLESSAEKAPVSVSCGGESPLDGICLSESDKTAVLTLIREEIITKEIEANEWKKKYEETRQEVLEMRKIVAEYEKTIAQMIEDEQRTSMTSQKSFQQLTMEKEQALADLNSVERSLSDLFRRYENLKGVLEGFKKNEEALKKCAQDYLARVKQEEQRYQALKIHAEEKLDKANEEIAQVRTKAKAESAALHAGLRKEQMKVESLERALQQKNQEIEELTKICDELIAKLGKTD

| effect of a mutation on the interaction | Variant |
| --- | --- |
| with no effect | K303R |
| with no effect | E216G |
| with no effect | G263A |

Variants of: B7
Conditions: with ldoc1_human LDOC1, O95751
ldoc1_human LDOC1, O95751, sequence (O95751 whole entry): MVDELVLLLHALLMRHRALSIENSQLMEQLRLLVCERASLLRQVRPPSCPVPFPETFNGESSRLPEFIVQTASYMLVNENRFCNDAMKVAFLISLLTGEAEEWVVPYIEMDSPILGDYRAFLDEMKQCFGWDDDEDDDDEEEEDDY

| effect of a mutation on the interaction | Variant |
| --- | --- |
| with no effect | K303R |
| with no effect | E216G |
| with no effect | G263A |

Variants of: B8
Conditions: with klc3_human KLC3, Q6P597

| effect of a mutation on the interaction | Variant |
| --- | --- |
| with no effect | E58K |
